In the supplement of paper PMC12764529:
± gives the half width of the 95% confidence interval.

Experiments:
[1] = folding stability dG unfold (combined trypsin and chymotrypsin); higher = more stable
Method in brief: (§1)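 Unfolding free energy was derived, per protease or combined, by relating Bayesian-fitted K50 values from sequencing counts to a sequence-predicted unfolded-state K50 and a shared folded-state K50. The underlying digests exposed cysteine-free mini-proteins under 80 residues, in a PA-tagged cDNA display construct, to trypsin and chymotrypsin at 11 threefold-diluted concentrations and to a no-protease condition. A filter kept only designs with AlphaFold2 dimer inter-PAE above 15.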

[2] = folding stability dG unfold from trypsin proteolysis; higher = more stable
Method in brief: as §1

[3] = folding stability dG unfold from chymotrypsin proteolysis; higher = more stable
Method in brief: as §1

Row | Sequence | folding stability dG unfold [1] | folding stability dG unfold [2] | folding stability dG unfold [3]
1 | SAGGMANPEDFKVVESLEFRDPDNGKPFTIEIAKPPDNNVPIMIWHNGSMYMFVIDGDKIEVFPIKNSAGGS [r16_711_TrROS] | 1.75 ± 0.091 kcal/mol | 1.5 ± 0.04 kcal/mol | 1.88 ± 0.1 kcal/mol
2 | SAGGSAGGKTISIPGSIEEIQEKLGGPIDEVEHNKPGSGSYKPKNGKPITIHFDSPEDILDFFKSAGGSAGG [r6_19_TrROS] | 0.206 ± 0.12 kcal/mol | 0.318 ± 0.032 kcal/mol | -0.0753 ± 0.15 kcal/mol
3 | SAGGSAGGSMKYYKTKDGKIVKAPPIETVKLKLKLEINGKKIEIEIEMSKEEIDKLLKELEKKSAGGSAGGS [r20_148_TrROS_Hall] | 1.05 ± 0.13 kcal/mol | 0.717 ± 0.051 kcal/mol | 1.27 ± 0.17 kcal/mol
4 | SAEIEVKPGEELEITVNGKKLRITVEKVEVRVEVKELPPPPPPEVEVYTLTRDPATDELRLERRTAEELASA [r9_881_TrROS_Hall] | 0.23 ± 0.15 kcal/mol | 0.0576 ± 0.22 kcal/mol | 0.352 ± 0.24 kcal/mol
5 | SAGGTLRNMPVEQIAKRLQNHGYEIKVENIRHNEDRVRIKIEVERRNKNGKPHEEVKISIEIPDPDDFSAGG [r13_566_TrROS] | 0.559 ± 0.27 kcal/mol | 0.461 ± 0.23 kcal/mol | 0.403 ± 0.15 kcal/mol
6 | SAGGSAMTAEELARKLFPGAEVEVEVRLERNEDGSLSLRVEVRVRAAPPPEEEEVEEPEEVEEEEESAGGSA [r15_417_TrROS_Hall] | 2.2 ± 0.28 kcal/mol | 2.78 ± 0.16 kcal/mol | 1.99 ± 0.052 kcal/mol
7 | SAGGSAGGSAGKPEIEMEIETRTVRLPDGYLLRFSRMRITLPDGSKFEFLSVEIIRLEDLSAGGSAGGSAGG [r17_312_TrROS_Hall] | 5.38 ± 0.36 kcal/mol | 3.88 ± 0.31 kcal/mol | 5.56 ± 0.14 kcal/mol
8 | SAGGSAGGSDVEVTVTLEYDEETGVLYVTAEVRDKETGRTVRVVVKFDLETNEWEVVAVEVLPSAGGSAGGS [r20_163_TrROS_Hall] | 3.91 ± 0.11 kcal/mol | 2.92 ± 0.16 kcal/mol | 4.25 ± 0.16 kcal/mol
9 | SAGGSAGGSAGGKKTINVEIVKIEVTKNKKTNEYTVKIYIKDTGKTITLTVKPGDIIKISAGGSAGGSAGGS [r10_819_TrROS_Hall] | 3.1 ± 0.21 kcal/mol | 1.42 ± 0.064 kcal/mol | 3.28 ± 0.1 kcal/mol
10 | SAGGSAGGSAMQRDPDGKPQPQVTFRIPADDMPEEQIKKHLPPEFADNFRDNMPEGDTITLSAGGSAGGSAG [r3_326_TrROS] | -0.239 ± 0.14 kcal/mol | -0.688 ± 0.19 kcal/mol | -0.105 ± 0.25 kcal/mol
11 | SAGGKVKIIVFNKKTGEKIEIDLSKLKPGDIIKLPNGYYKIIDKKTKKIKVIKAKSIEELKKAIKKLSSAGG [r13_962_TrROS_Hall] | 2.01 ± 0.33 kcal/mol | 2.07 ± 0.15 kcal/mol | 2.21 ± 0.17 kcal/mol
12 | SAGGVEEAREALEEAGFEIVDVDEETGTVTVRNEETEETITVRVEAPAPPPVEVEEEVEVEEEEEEESAGGS [r16_197_TrROS_Hall] | 1.34 ± 0.096 kcal/mol | 1.14 ± 0.089 kcal/mol | 1.48 ± 0.12 kcal/mol
13 | SAGYIIGYPIIEELFNAGKPEEIRKILKEAVEKDPDKIIIIEVPENPEIAKAIEEAFKEEGIPLIIIPESAG [r14_236_TrMRF] | 0.929 ± 0.065 kcal/mol | 1.02 ± 0.035 kcal/mol | 0.81 ± 0.1 kcal/mol
14 | SAGGSAGGSAPLRFEFELPGNYRVRIELEPVPDDPSAGPRYRLRIEVFDLETGEVLPFEIDGSAGGSAGGSA [r18_66_TrMRF] | 3.74 ± 0.061 kcal/mol | 2.75 ± 0.065 kcal/mol | 4.18 ± 0.064 kcal/mol
15 | SAGGSAGSMSEIEGLTVLEEREEPDPATGTTVPTLVVRDPEKGELYVITATTDPATGKPTYSFDLVSAGGSA [r15_170_JUSTAS] | 0.595 ± 0.047 kcal/mol | 0.871 ± 0.03 kcal/mol | 0.0106 ± 0.072 kcal/mol
16 | SAGGSAGGSAMPVKVKVTVKARFGDKEFELEFEIEVGPGATEEDIKNLVTEKYPGFEEVELESAGGSAGGSA [r18_195_JUSTAS] | 2.16 ± 0.12 kcal/mol | 1.92 ± 0.083 kcal/mol | 2.16 ± 0.11 kcal/mol
17 | SAGGSAGGSAGKKKLTVTVKKKKPAKEKKKVKTKVVKEKKLELSEEELKKLLDELKELLESAGGSAGGSAGG [r11_418_TrROS_Hall] | 0.321 ± 0.16 kcal/mol | 0.624 ± 0.079 kcal/mol | -0.447 ± 0.14 kcal/mol
18 | SAGGWTIREILEKNPNLREFAKEGWTIEIYYPNGKSGRVKIKEGSADDILDDINKNFPGPVEISITKSAGGS [r16_655_TrROS] | 0.573 ± 0.14 kcal/mol | 0.659 ± 0.072 kcal/mol | 0.437 ± 0.23 kcal/mol
19 | SAGGSAGGSGMTVVTLEAEPETAEEAVAAAIQAIRDALPADETIASVEVSFDPATGKVTVVVESAGGSAGGS [r12_308_JUSTAS] | 1.8 ± 0.12 kcal/mol | 0.757 ± 0.051 kcal/mol | 2.01 ± 0.042 kcal/mol
20 | SMDIKVTKLPDGSYRITASVPPDTKPITIPVPKTGKPVVITTEPGKLTVTTDDEEVVKEVAEAIKKGELLSA [r9_515_JUSTAS] | 1.02 ± 0.15 kcal/mol | 0.951 ± 0.066 kcal/mol | 0.929 ± 0.087 kcal/mol
21 | SAGGMKVTTKPLPSDSEVVDIPGGVTMKIDPKTGVGTITLPDGKTLKMTITKDPNKNTTTITITPESSAGGS [r8_186_JUSTAS] | 0.998 ± 0.22 kcal/mol | 0.366 ± 0.16 kcal/mol | 1.14 ± 0.2 kcal/mol

Row | Sequence | folding stability dG unfold [1] | folding stability dG unfold [2] | folding stability dG unfold [3]
22 | SAGGSARALLEELEVLSEEDRGDFTVVTVKGPAAEYPAEEVRAALEALGIAVEYDPATGEVTVYVASAGGSA [r15_599_JUSTAS] | 0.69 ± 0.071 kcal/mol | -0.0454 ± 0.023 kcal/mol | 0.964 ± 0.084 kcal/mol
23 | SAGGSAPEVRLSASREGNTVTVLALKPVGDRTYLVVTTYEVRELGEGFLVLSSSEVIPLPDGEGFFSAGGSA [r15_725_TrMRF] | 2.36 ± 0.032 kcal/mol | 1.626 ± 0.015 kcal/mol | 2.66 ± 0.044 kcal/mol
24 | SAGGSAGGSAGGMVTTKTVVTFDPSGYITTTETIKVVGTDELLTKTSVTPVEPVPPLLSSAGGSAGGSAGGS [r10_928_JUSTAS] | 0.828 ± 0.1 kcal/mol | -0.179 ± 0.2 kcal/mol | 1.18 ± 0.026 kcal/mol
25 | SAGGMTLNITVEIPGLGTTITKTFSANPSDYEKIARETEEENPEYKLTSVKVTYSPNSITIDATVELVSAGG [r13_196_JUSTAS] | 2.04 ± 0.21 kcal/mol | 1.38 ± 0.17 kcal/mol | 2.38 ± 0.057 kcal/mol
26 | SAGGSAGGSAGMMVVRAKIKLPNGEVLEIENMSLEEILALAKEKGYEIVDIEVVAPDEEPSAGGSAGGSAGG [r11_283_TrMRF] | 4.37 ± 0.26 kcal/mol | 4.77 ± 0.77 kcal/mol | 4.07 ± 0.14 kcal/mol
27 | SAGGSAGGSASTTVTYVEIKVTNPNPPGTPVAEYLIPLSEITEEMIEKLEKEGGLKVEVTVVLSAGGSAGGS [r12_398_JUSTAS] | 1.41 ± 0.058 kcal/mol | 1.2 ± 0.12 kcal/mol | 1.44 ± 0.033 kcal/mol
28 | SAGGSAGGSAGDFELDFEWHRTNDHVVLSNKARDPDNGKPLYISIIFDPDPGKLDISIMPSAGGSAGGSAGG [r17_242_TrROS] | 0.0261 ± 0.083 kcal/mol | 0.396 ± 0.036 kcal/mol | -0.858 ± 0.59 kcal/mol
29 | SAGSMLLIKITITFKDPNGNLLKTIPIEKEADPNDPEAIEKAKEEAEKLAEELLPEDELAEVKAEVLLLSAG [r5_793_JUSTAS] | 2.24 ± 0.19 kcal/mol | 1.73 ± 0.11 kcal/mol | 2.36 ± 0.097 kcal/mol
30 | SAGGSKIKIVEVKKNEDGTVTVKVEVEINGKKYTIEARFETLEDGKKVMTLRITNENGEEIEIVLPSAGGSA [r2_376_TrROS_Hall] | 5.12 ± 0.32 kcal/mol | 3.45 ± 0.38 kcal/mol | 5.22 ± 0.17 kcal/mol
31 | SAGGSAGGSAGGAEITIEEKDGKLTLTVRLPDGYVATATFDPNGKWTIKEIKVYKLPEGLSAGGSAGGSAGG [r7_826_TrROS_Hall] | 3.05 ± 0.47 kcal/mol | 2.35 ± 0.3 kcal/mol | 3.52 ± 0.077 kcal/mol
32 | SAGGSAGGPLVLRIETPEDKVLVLVLPEEAEKLPPKELAEIAAKEFAALPGVKEVKVEIAPLPLSAGGSAGG [r6_710_TrMRF] | 1.03 ± 0.12 kcal/mol | 0.885 ± 0.058 kcal/mol | 1.11 ± 0.15 kcal/mol
33 | SAGGSAGGSAGGAEKFKVLSVSWDLGKGKRYGVLEVERPDGPLLTIVVPLSYPDKLKELASAGGSAGGSAGG [r7_365_TrMRF] | 1.02 ± 0.22 kcal/mol | 0.395 ± 0.14 kcal/mol | 1.29 ± 0.17 kcal/mol
34 | SAGGTATLVIPRIYKGSPEEAARAVQEIADALAALGYDVEVDATVYPVGDYLVVTVTVTVTAPPDSPLASAG [r5_217_TrMRF] | 2.63 ± 0.15 kcal/mol | 2.62 ± 0.099 kcal/mol | 2.82 ± 0.046 kcal/mol
35 | SAGEELIKKLAEELNLEVEIVSVEVDEETPTITVEVRVRNKDGEELTVRITITYDKETDEVHIEVEVLPSAG [r5_929_TrROS_Hall] | 4.08 ± 0.2 kcal/mol | 3.91 ± 0.14 kcal/mol | 3.99 ± 0.26 kcal/mol
36 | SAGGEKVTVTVTTETKTVTVTVYKAPAPKFKVTEITLELDENGNLRLTIKLENGETLEFDSLEDLLAALSAG [r5_618_TrROS_Hall] | 2.73 ± 0.3 kcal/mol | 2.77 ± 0.079 kcal/mol | 3.17 ± 0.15 kcal/mol
37 | SAGGSAGGSAGEKVIRFPFKSPEEIREHIKNGRPIRFPNGKPVKITKIQPYPNGWLWITVSAGGSAGGSAGG [r11_48_TrROS] | 1.12 ± 0.21 kcal/mol | 0.89 ± 0.05 kcal/mol | 1.3 ± 0.12 kcal/mol
38 | SPAGELVSSTFPVTVTVTVWRRLPDGTWTPVGTETFTVTVTVAGIPEEVAEALRKAAETPPPPPNLAGLLSA [r9_1192_TrMRF] | 1.93 ± 0.054 kcal/mol | 1.98 ± 0.028 kcal/mol | 1.82 ± 0.049 kcal/mol
39 | SAGGMISKKLNPPSKEEAEKIAEEIKKKNPNYKVTMTYDPKTGTYTITITPLPKPPPDPKNFKEIIKSAGGS [r16_674_JUSTAS] | 1.48 ± 0.21 kcal/mol | 1.23 ± 0.12 kcal/mol | 1.74 ± 0.15 kcal/mol
40 | SAGGSAGGSAGEEFIKKIPPGAEVKPITPLESEGKVYVKITVKKKDENGKWTEEEFIFKVSAGGSAGGSAGG [r17_140_JUSTAS] | 1.28 ± 0.22 kcal/mol | 1.17 ± 0.072 kcal/mol | 1.38 ± 0.087 kcal/mol
41 | SAGGSAPVTEGPNSITVTRDLDPSESEEEVRALAEEILAALPADVSVSVEFDPETGTATITITFPGSAGGSA [r15_210_JUSTAS] | 2.15 ± 0.055 kcal/mol | 2.31 ± 0.054 kcal/mol | 1.95 ± 0.051 kcal/mol
42 | ARELPVEEIREAVREFLRKHGFRVVSEEVVELPDGSVLVFVEAEPEDKSTRYRLVITRPVDGSVRLVIEPVS [r1_460_TrMRF] | 3.283 ± 0.028 kcal/mol | 2.66 ± 0.044 kcal/mol | 3.588 ± 0.011 kcal/mol
